# In the supplement of paper PMC9170038:
# System: K4 kissing-loop RNA reporter
# Experiment: apparent KD of K4 kissing-loop reporter; higher = weaker reporter binding
# Conditions: Eterna round: R107
# Method: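 RNA-MaP round R107: designed RNA switches with theophylline, tryptophan, arginine or FMN aptamers are transcribed on-chip within common flanks. They are titrated with a labelled K4 kissing-loop RNA reporter in RNA-MaP buffer (100 mM Tris pH 7.5, 80 mM KCl, 4 mM MgCl2), without ligand or with the indicated ligand. Median apparent KD per design.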
# [1] = input ligand: theophylline 20 uM
# [2] = input ligand: tryptophan 2.4 mM
# 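Note: bound reporter read as fluorescence of individual clusters on recovered sequencing chips by microscopy, with normalized cluster intensities fitted with a binding model.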
Sequence,apparent KD of K4 kissing-loop reporter (input ligand: FMN 200 uM) [nM],apparent KD of K4 kissing-loop reporter (input ligand: arginine 13.2 mM) [nM],apparent KD of K4 kissing-loop reporter (input ligand: none) [nM],apparent KD of K4 kissing-loop reporter [1] [nM],apparent KD of K4 kissing-loop reporter [2] [nM]
GCUAUGGUAGGAAGGAGCGCUUAUUUAUUAAUAAGAGUGAUGUUCGAUAGUAGAUAUUUAUAGCAGGUAGGUCGCCUACUAUAGC [Arginine B K4 12],186,196,167,341,167
GCUAUGGUAGGAAGGAGCGCUUAUUUAUUUUUACGAGUGAUGUUCGGUAGUAGAUAGUUAAAGCAGGUAGGUCGCCUACUAUAGC [Arginine B K4 16],141,112,148,135,123
GCUAUGGUAGGAAGGAGCGCUUGCUCGGUCAUAUGAGUGAUGUUCGAGACUGAGCAUUUAUAGCAGGUAGGUCGCCUACUAUAGC [Arginine B K4 9],235,206,182,242,177
GGAAAGCCAGUGAUGUUGGCAUAAACUGAAGGAGCGCGUGAAAACGCAGGUAGGUCGCAGAACCUUGCCAACUAUAUUAUUUACC [Ex Arginine A K4 21],128,221,160,221,135
GGACAAGCAUUAGGAUAUAUAGAGCGAAACGCAAUUGAGUGAUGUUCAAAAGCAUAGGGCGAGGAAAUAGAAGGAAUGCACGGGC [Default title],192,180,216,151,152
GGAGGGAUCUCGGCCGCCACUCAUAAGAAAUGGGCCUCAGAGAUAUAGUGAUGUUAUGUAAAGAAGAGGACCGGGAGAAAGAAGG [ExTryptoB.Db],148,141,141,135,144
GGAUAGGAUAGAGGAUAUGGCUUACGCAGAAAUAACUUAUUGUGUAAAUCCAUAGGGAGUGAUGUUCCAGAAGGCUGUCCUAUCG [MatMod 17 - Jieux - Exclusion - FMN B],415,212,251,244,201
GGAUCCACCAGUGAUGUUGGAGAAAACUCCAAGGAUAUGACGAAAGUCAGAAGGUGGUAAUAAGACGUCAAAGACGUCGGAUCCA [FmnA 19 #SwitchBubble #K4Early],1400,149,101,323,150
GGAUCCACCAGUGAUGUUGGAGAAAACUCCAAGGAUAUGACGAAAGUCAGAAGGUGGUAGACUGGUCAAAGUCCGGUCGGAUCCA [FmnA10 U66],297,77.4,338,297,262
GGAUCCACCAGUGAUGUUGGAGAAAACUCUAAGGAUAUGACGAAAGUCAGAAGGUGGUAGACUGGUCAAAGUCCGGUCGGAUCCA [FmnA10 U30+U66],237,191,577,756,249
GGAUCCACCAGUGAUGUUGGAGAAAACUUCAAGGAUAUGACGAAAGUCAGAAGGUGGUAGACUGGGCAAAGUCCGGUCGGAUCCA [FmnA10 U29+G66],543,228,296,402,274
GGAUCCACCAGUGAUGUUGGAGUAAUCUCCAAGGAUAUGACGAAAGUCAGAAGGUGGUAAAUAGACGUCAAAGACGUCGGAUCCA [FmnA 22 #SwitchBubble #K4Early],499,78.3,97.9,234,69
GGAUCUGCCAGUGAUGUUGGUUAAUAUAUCAAGGAUAUGACGAAAGUCAGAAGGUGAAAGACUGGACAAAGUCCAGUCGGAUCCA [KL-SSFMN-A20],237,312,352,460,270
GGAUGGUAGGCGGCCGCCACUAAAACUGAACAAAUAUAAACCAGUGAUGUUGGUAUGAUGAAGUAUAGGACCGGGCCUAGAUAGA [Exclusion - Tryptophan B (Freestyle 1)],124,134,143,160,122
GGCAGUGAUGUUGCCAGUGGCAGAUGCGAAGGAGCGCGGUGAGACGCAGGUAGGUCGCGCAUUGAAAUUGCUGUCACUAGAAUGC [whbob_Ex_Arginine_A_2t127],258,285,283,305,208
GGCAUGCGUAGAGUGAUGUUCUAAGAUGAUACCAGUGCGGAAACGCACCCUUGGCAGCAUCUGACGAGCAUGCCGGCGAAAGCCU,792,586,814,607,771
GGGAGGAAAAUUUUCCUCAAAAGUUGGCUACAGGAUAUCGUGGGAAUGAGAAGGGUAACCGAGACGCCCAGUGAUGUUGGGUGCC [Antegete],415,247,318,251,245
GGGCAAGUGAGUGAUGUUCGAUGAUGCUUAAAGGAUAUGUAGGAAUACAGAAGGUUAUAUUCCCUGACAUUAGAUCUUUACAGGG [theeternabot_exclusion_KL_FMN_A_44],117,134,105,151,90.4
GGGCGUAUUCACCGAGUGAUGUUCGGAAGGAAGGAUAUUCAAGAUUGAAGAAGGUCCGGCCCAUCGGCCAUUAAACUUGAAAGGU [theeternabot_sameState_KL_FMN_A_48],171,113,139,162,117
GGGUAUUACGGAGGAUAUGCACUGAGGAGGAGAAUAUAGUGAUGUUAUAUAAGAGGAAGGAGAAGAGUAGAAGGCCGUGGUGUUU [SSFMNB.J],171,126,170,195,109
GGUAGCAUCGCGGCCGCCACUAAUCGCUAAGGCUCAGGACCCUAAUAGCGAGUGAUGUUCGCCCUUAGGACCGGGCGAUGCUACC,114,93.3,101,87.5,119
GGUAGCAUGGCGGCCGCCACUAUCAGGAGUGAUGUUCCAACGCAGAGCUUCAGCUAGUGUGUAAAUAGGACCGGGCCAUGCUACC,414,69.8,512,177,866

Sequence,apparent KD of K4 kissing-loop reporter (input ligand: FMN 200 uM) [nM],apparent KD of K4 kissing-loop reporter (input ligand: arginine 13.2 mM) [nM],apparent KD of K4 kissing-loop reporter (input ligand: none) [nM],apparent KD of K4 kissing-loop reporter [1] [nM],apparent KD of K4 kissing-loop reporter [2] [nM]
GGUAGCAUGGCGGCCGCCACUUGCACUCGUCUUGCAUAUUGGCCUAUGAUAGUAGUGAUGUUACUAAGGACCGGGCCAUGCUACC,266,173,194,178,255
GGUAUCCAGUACCAUUGCGUUAAAACAGAAGGAGCGAGAAUAGACUCAGGUAGGUCGCUGUUUAUAGUCGAGUGAUGUUCGAAUC [Same State Arginine A GF 14],202,281,265,315,188
GGUGCUGUCUGUGCCGCCCUCCUCGUCCCUCGAGGACCGGUACGGCCGCCACUCGAGUGAUGUUCGGGUAGCCCUCCCUGCCAGC [BDazzled - #21 Exc. Tryptophan A],493,402,548,438,492
GGUGUUGUUUGUGCUGUUUUCCUCGUUUCUCGAGGACCGGUACGGCCGCCACUCGAGUGAUGUUUGGGUAGCGAUCUUUGUUAGU [Bdazzled - #5 Exc. Tryptophan A],223,142,177,177,281
GGUGUUGUUUGUGCUGUUUUCUUCGUUUCUCGAGGACCGGUACGGCCGCCACUCGAGUGAUGUUUGGGUAGCGAUGUUUGUUAGU [Bdazzled - #3 - Exc. Tryptophan A],473,287,373,360,470
GGUUCCUCAGUGAUGUUGAGGUGACCUCGGCAGGAUAUAGGCAUUACUAGAAGGGCCAAAUGAACCCUGUCCAGCGGCACAGGGA [Arleorbile],147,213,331,298,252
GGUUGAAGCACCCGGAGUGAUGUUCCGGAUACCAGCAAACCAACUUGCCCUUGGCAGCCGUAUAGCGUCCGGUGGGCCGAGCAUA [Beisadi],101,90.3,97,99.3,90
GGUUUUAACCGCAGUGAUGUUGCGUUGAAACGAGGACCGGUACGGCCGCCACUCGAAAAGAAGCGGCCAAAUUAAAAUCGUAAAG [Exclusion Tryptophan A GF 23],129,162,144,164,114
GUAAUCUUGCUCGAGUGAUGUUCGAGCGAAGGAGCGCGAGAAAUCGCAGGUAGGUCGCGCUCGAAAUAUGAGCGAACAAUUAUUA [Arg A Ex t2b],222,197,220,219,230
GUACAUUGGAAACAAGAACAAAUAACCGAAGGAGCGCGUGAAAACGCAGGUAGGUCGCGGAAGCAGUGAUGUUGCAUUAGAGAUC [Same State Arginine A GF 16],79.2,103,61.1,106,60.3
GUAUCGCUAGGAGGAUAUUUCAAUUUGACUCUUUGAGUUUUUACGGAGUGAUGUUCCGUUUUACGGAAAGAAGGCCUAGUGAUAC [FMN B 15],121,138,162,159,161
GUAUGUGGAAACACGUACUUAUAUCCUAAGCAGGAUAUGCGGAAACGCAGAAGGGCUACCAACGAGUUUACCCAGUGAUGUUGGG [Ex FMN A 14],275,260,320,288,296
GUCCAACCUGGAGGAUAUCUGCUGUCCAGUGAUGUUGGACACCUUAGUAAAGGCCGGGUAGCCCGCAGAGAAGGCCGGAGUUGCC [Isateron],265,354,429,390,329
GUCCCAGUGAUGUUGGUAGGCGGGCGGGAUACCAGCGAAGACUCACGCCCUUGGCAGCCCACAUAUCCCGCGUAGGGAUUAGCCC [Same State - Theophylline A (Freestyle 22)],652,437,656,638,457
GUCCGGAAGGCGGCUUCACGACCGUGGUGGGAGGAUAUGUCUAAGGACAGAAGGCCCAGUGAUGUUGGGCUUUAGGAGAGCCAUA [Ragele],310,128,143,116,118
GUCUGCGUCUCGGCCGCCACUCACUAGUGAUGUUAGUAAGGAGCGACUAGCGCAGUCCUGAAGAUGAGGACCGGGAGACGCAGGA [Exclusion Tryptophan B GF5],141,110,119,91,358
GUGAAGGAGCUGCAGUGAUGUUGCAGAAACUAGGAUAUCAGGAAACUGAGAAGGAGUCAACUCCUUCACCUAAAUACUGCAGAAA [KL-SSFMN-A23],104,130,158,157,147
GUGAGGAUCCGAAGGAGCGUCCGCAAUCCAGUGAUGUUGGGUGUUGGUUAUAUUUAACGAGGACAGGUAGGUCGCGGAUUUUCAA [Same State Arginie B GF 22],202,126,172,193,159
GUGCGGCUAGUGAUGUUGGUUGCGUGGGAAGGAGCGCAGAAACAUGCAGGUAGGUCGCCCACACCUCUGAAAGGAGGUUAAUUCA [Diusdige],200,172,133,171,248
GUGGAAUUAUGAAAGUGGUUUUAUAAGGAAGGAGCGGCCGAAAGGCCAGGUAGGUCGCCUAUUGACAGUGAUGUUGUUAUAUGGA [#13],105,180,103,168,75
GUUACGCAUGGAAGGAGCGCACUCCGAUUGGGCGACGCAGUGAUGUUGUGGUUCGUUCGAAUGCAGGUAGGUCGCCAUGUGUAAC [Ex Arginine B K4 21],186,172,176,141,192
GUUACGCAUGGAAGGAGCGCUCUCAGGCUUAAUAACACAGUGAUGUUGUGAAUUUGCCUAAAGCAGGUAGGUCGCCAUGUGUAAC [Ex Arginine B K4 9],426,400,440,423,392
